# Source: paper PMC4498696 (PLoS Pathogens, 2015)
# B1: AM14 IgG (antibody, V domains shown)
# VH: EVQLVESGGGVVQPGRSLRLSCAASGFSFSHYAMHWVRQAPGKGLEWVAVISYDGENTYYADSVKGRFSISRDNSKNTVSLQMNSLRPEDTALYYCARDRIVDDYYYYGMDVWGQGATVTVSS
# VL: DIQMTQSPSSLSASVGDRVTITCQASQDIKKYLNWYHQKPGKVPELLMHDASNLETGVPSRFSGRGSGTDFTLTISSLQPEDIGTYYCQQYDNLPPLTFGGGTKVEIK
# B2: AM14 Fab (Fab, V domains shown)
# VH: B1 VH
# VL: B1 VL
# B3: motavizumab IgG (antibody, V domains shown)
# VH: QVTLRESGPALVKPTQTLTLTCTFSGFSLSTAGMSVGWIRQPPGKALEWLADIWWDDKKHYNPSLKDRLTISKDTSKNQVVLKVTNMDPADTATYYCARDMIFNFYFDVWGQGTTVTVSS
# VL: DIQMTQSPSTLSASVGDRVTITCSASSRVGYMHWYQQKPGKAPKLLIYDTSKLASGVPSRFSGSGSGTEFTLTISSLQPDDFATYYCFQGSGYPFTFGGGTKVEIK
# Columns and labels:
# [1] = target: prefusion-stabilized RSV F ectodomain DS-Cav1 (strain A2), furin-cleaved trimer with foldon, tags removed (respiratory syncytial virus, strain A2 …, UniProt P03420); experiment: cell-based or functional assay
# [2] = target: full-length prefusion F (RSV F residues 1-574 with the DS-Cav1 stabilizing mutations) on the cell surface (Human respiratory syncytial virus A, …, UniProt P03420, stabilised); experiment: flow cytometry on cells; Expi293 cells expressing RSV F 1-574 DS-Cav1 or its N426D variant; antibodies 1 μg/ml, 1 hour at 4°C; Alexa488 anti-human secondary; normalized to motavizumab binding; details: one partner purified
# [3] = target: T1, biotinylated AviTagged prefusion RSV F DS-Cav1, subtype A (strain A2) (Human respiratory syncytial virus A, …, stabilised, biotin (by biotin ligase BirA, on the AviTag)); experiment: Luminex bead binding assay; biotinylated RSV F proteins coupled to avidin-coated MagPlex beads (1 μg per 50,000 beads); IgG in 10-fold serial dilutions 1 μM to 0.1 pM; PE-conjugated anti-human IgG Fc; PBS, 0.1% BSA, 0.05% Tween 20; details: both partners purified
# T1 construct: also called Biotinylated DS-Cav1; immobilized prefusion RSV F; source: FreeStyle 293-F, transfected, purified; biotinylated with BirA, Superdex 200; copies: 3 + 3
# [4] = target: T1, biotinylated AviTagged prefusion RSV F …; experiment: SPR; biotinylated DS-Cav1 immobilised on an SA chip (292 RU), Biacore X100; AM14 Fab 5 nM to 19.5 pM in HBS-EP+; 1:1 binding model; details: both partners purified
# [5] = target: T2, biotinylated prefusion RSV F DS-Cav1, subtype B (Human respiratory syncytial virus B, …, UniProt P13843, stabilised, biotin); experiment: Luminex bead binding assay; details: both partners purified
# T2 construct: also called prefusion RSV F derived from B subtype; source: biotinylated protein coupled to avidin-coated beads; copies: 3 + 3
binder,measurement,setting,value
B1,"IC50 of neutralisation of RSV strain A2 (F of the virus), microneutralization on HEp-2 cells",[1],0.0124 µg/mL
same,"IC50 of neutralisation of RSV strain A Long (F of the virus), microneutralization on HEp-2 cells",[1],0.0136 µg/mL
same,binding result,[2],binds
same,EC50,[3],0.63 nM
B2,Kd,[4],0.18 nM
same,koff,[4],0.0034 s⁻¹
same,kon,[4],1.87e+07 M⁻¹ s⁻¹
B3,binding result,[5],binds
